Data as given in article PMC4294129 (Drug Design, Development and Therapy, 2015).

Tests used:
[1] = target: GST-tagged α2A domain (UniProt P17301); assay: ELISA
[2] = tested on: human platelets; assay: Collagen I-induced platelet aggregation in platelet rich plasma; assay type: cell-based; details: 10 μM, 2 μg/mL collagen I, saline 85%±19%, mean ± SD, four donors

UniProt P17301, sequence (P17301 30-1181): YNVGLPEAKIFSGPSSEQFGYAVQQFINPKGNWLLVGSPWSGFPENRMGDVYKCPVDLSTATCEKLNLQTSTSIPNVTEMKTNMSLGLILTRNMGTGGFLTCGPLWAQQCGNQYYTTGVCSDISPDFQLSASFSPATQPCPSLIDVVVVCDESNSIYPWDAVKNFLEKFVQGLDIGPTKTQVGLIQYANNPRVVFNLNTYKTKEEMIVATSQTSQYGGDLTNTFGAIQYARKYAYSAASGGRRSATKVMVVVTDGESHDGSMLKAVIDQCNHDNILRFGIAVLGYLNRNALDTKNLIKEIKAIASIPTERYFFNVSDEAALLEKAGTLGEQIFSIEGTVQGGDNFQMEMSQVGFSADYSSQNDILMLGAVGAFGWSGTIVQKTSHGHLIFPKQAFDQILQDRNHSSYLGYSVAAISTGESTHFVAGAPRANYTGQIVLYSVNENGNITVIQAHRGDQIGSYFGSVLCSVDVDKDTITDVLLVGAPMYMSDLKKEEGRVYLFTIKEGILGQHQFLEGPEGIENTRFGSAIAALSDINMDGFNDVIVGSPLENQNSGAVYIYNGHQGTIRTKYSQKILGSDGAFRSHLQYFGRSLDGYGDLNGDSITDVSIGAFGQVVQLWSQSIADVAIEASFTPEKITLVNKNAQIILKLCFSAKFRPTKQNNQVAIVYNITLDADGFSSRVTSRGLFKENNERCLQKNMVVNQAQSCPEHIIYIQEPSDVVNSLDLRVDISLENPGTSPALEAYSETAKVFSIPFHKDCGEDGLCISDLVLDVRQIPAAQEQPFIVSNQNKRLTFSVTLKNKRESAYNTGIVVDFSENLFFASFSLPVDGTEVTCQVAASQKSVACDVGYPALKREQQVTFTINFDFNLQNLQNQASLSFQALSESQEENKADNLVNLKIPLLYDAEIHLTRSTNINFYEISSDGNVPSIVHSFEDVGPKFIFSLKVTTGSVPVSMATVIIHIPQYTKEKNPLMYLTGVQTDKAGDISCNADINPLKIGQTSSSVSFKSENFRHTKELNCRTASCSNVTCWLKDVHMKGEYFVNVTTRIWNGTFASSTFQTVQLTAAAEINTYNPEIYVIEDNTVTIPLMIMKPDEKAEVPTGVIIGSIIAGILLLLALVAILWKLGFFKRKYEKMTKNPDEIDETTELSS

percent inhibition of GST-α2A binding to collagen I [1] [%] | Compound | platelet aggregation, collagen-induced, in PRP [2]
30 | Vipegitide (peptide) | 
 | CC(=O)Oc1cc2c(s1)CCN(C(C(=O)C1CC1)c1ccccc1F)C2 (stereo not drawn) [prasugrel] | 34%±18%
30 | Vipegitide-PEG2 (peptide) | 
